From PMC8220720, “Universal capability of 3-ketosteroid Δ^1-dehydrogenases to catalyze Δ^1-dehydrogenation of C17-substituted steroids” (Microbial Cell Factories, 2021)

How the values were obtained:
Assay in all cases: purified protein
Assay type in all cases: biochemical, Sterolibacterium denitrificans
purified protein [1] = substrate: CC(C)CCC[C@@H](C)[C@H]1CC[C@H]2[C@@H]3CCC4=CC(=O)CC[C@]4(C)[C@H]3CC[C@]12C; conditions: apparent, as total steroid concentration, DCPIP as acceptor, 2% HBC, 2% EGME, 0.1 M potassium phosphate pH 6.5, 30 °C
purified protein [2] = substrate: C[C@]12CCC(=O)C=C1CC[C@@H]1[C@@H]2CC[C@]2(C)C(=O)CC[C@@H]12; conditions: pH 6.5; 30.0 °C
purified protein [3] = substrate: O=C1C(Cl)=CC(=Nc2ccc(O)cc2)C=C1Cl; conditions: apparent, electron acceptor, co-substrate cholest-4-en-3-one, 2% HBC, 2% EGME, 0.1 M potassium phosphate pH 6.5, 30 °C

B1: AcmB (Sterolibacterium denitrificans) (protein)
chain: MSIETNTYDVIVVGSGAGAMLAAARAHDLGLSVLVVEKSDKYGGTSAVSGGAVWIPNNSQMQIKDSFDEALTYLKAATQGLVAEDRLLAYLESAPQMVEYINANMTLQYFPCHRYPDYYQHLPGAKPGGRTMEPMLFDAALLGDEFANLRMAYTGTLLMGKASMTATEAHVMLAKEPGWMLQVIKSLGRYYLDLPWRLKSRHDRKRGLGNAMAAGLRHALLERKVPLWLNTPFESLITEGAENKRVTGIVVKRNGQTLQLTARRGVVLGAGGFERNQQMREQYLPKPTNAAWSATPPHNTGDTIRAAMDIGARAELMDWAWWVPSIHVPGEAAQTGLFAERNLPGCIVVNGKGQRFINEASPYLEFGAAMYENHARSGSAVPAWLIFDGKFRYNYPMGPLMPGQIQPDRKAWLGKVYWRDDTLEGLAKQIGVDAAGLKQSVELNNQYAQDGKDREFDKGGNVFDRYYGDYNVKPNPCLAPIGKPPYYAMRVDAGDIGTKGGLLTDKDARVLDESDRPIEGLYCIGNNSASVMGKAYPGAGGTLGPAMTFGFRAANHIAASK
notes: recombinant, purified; cloned, expressed and purified as in the authors' earlier work; FAD enzyme
B1 showed a Km (purified protein [1]) of 23.7 ± 1.16 µM, a kcat (purified protein [1]) of 5.8 ± 0.2 s⁻¹ and a kcat/Km (purified protein [1]) of 245000 ± 1000 M⁻¹ s⁻¹. It also gave a Km (purified protein [2]) of 529.2 ± 32.5 µM, a kcat/Km (purified protein [2]) of 87000 ± 5000 M⁻¹ s⁻¹ and a Km (purified protein [3]) of 37.3 ± 3.3 µM. For the same protein, the kcat (purified protein [3]) was 5.8 ± 0.2 s⁻¹.
